# Measurements: patent publication US20180030119A1 (published 2018)
# How the values were obtained:
# [1] = target: T1, RSV F protein as coated in the ELISA of Example 3 (RSV-EIA antigen by the legend of FIG. 6) (RSV, strain ); assay: ELISA, serial dilutions of purified AR201 on coated antigen, anti-human IgG-HRP, four parameter fit
# T1 construct: also called total RSV antigen (EIA-antigen)
# [2] = target: F protein of clinical RSV isolate #1, on virus; assay: cell-based or functional assay
binder,measurement,setting,value
"AR201 (antibody, V domains shown, Fully human IgG1, kappa; 1 and 3 are used here; also called KBRV201) VH: LVQLRESGPGLVKPSQTLSLTCSVSGASINLYDYFWGWIRQAPGRGPEWIGYISGSTYYNPSLKRRATISVDTSKSQFFLELTSVTAADTAVYYCARDVGWGPQYYYGLDVWGQGTTVTVSS VL: DLVLTQSPGTLSLSPGERATLSCRASHSVQSTSLAWYQQKRGQAPRLLIYGGSSRVTGIPDRFSGSGSGTDFTLTISRLEPEDFAVYYCQQSDRSPPITFGQGTRLEMK",EC50,[1],0.103 nM
same,"IC50 of neutralisation, infectivity assay on Hep2 cells",[2],1700 nM
